The chains are these.
B1: CASP6 (parent)
chain: TCADRDNLTRRFSDLGFEVKCFND
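Also: lentivirally expressed fusions sorted by FACS into six bins by GFP to DsRed ratio, PSI derived from sequencing read proportions per bin multiplied by bin number.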

The variants in the data set derive from B1. Nature of the data set: protein stability index of a GFP-peptide fusion (GPS, HEK-293T) (PSI 1-6); higher = more stable. The settings on record: c terminus: a fixed tail appended.
With TCADRDNGTRRFSDLGFEVKCFND [L8G], the protein stability index came out at 3.66. The result for TCADRDNLTRRDSDLGFEVKCFND [F12D] reads 4.23; that for TCADRDNLTRRNSDLGFEVKCFND [F12N], 4.35; that for TCADRDNLTRRESDLGFEVKCFND [F12E], 4.7. The result for TCADRDNLTRRYSDLGFEVKCFND [F12Y] reads 3.45. With TCADRDNLTRRCSDLGFEVKCFND [F12C] the figure was 3.08.

As for TCADRDNLTRRASDLGFEVKCFND [F12A], the protein stability index came to 4.07. The result for TCADRDNLTRRHSDLGFEVKCFND [F12H] reads 4.07. With TCADRDNLTRRGSDLGFEVKCFND [F12G] the figure was 3.81.

Regarding TCADRDNLTRRSSDLGFEVKCFND [F12S], the protein stability index turned out to be 4.08. The result for TCADRDNLTRRWSDLGFEVKCFND [F12W] reads 3.1; that for TCADRDNLTRRVSDLGFEVKCFND [F12V], 4.21.

TCADRDNLTRRPSDLGFEVKCFND [F12P]: the protein stability index was 4.32.

Take TCADRDNLTRRLSDLGFEVKCFND [F12L]: the protein stability index was determined as 3.33. The result for TCADRDNLTRRKSDLGFEVKCFND [F12K] reads 4.1. With TCADRDNLTRRTSDLGFEVKCFND [F12T] the figure was 3.96; with TCADRDNLTRRMSDLGFEVKCFND [F12M], 3.42; with TCADRDNLTRRISDLGFEVKCFND [F12I], 2.98.

Regarding TCADRDNLTRRRSDLGFEVKCFND [F12R], the protein stability index came out at 3.35. With TCADRDNLTRRQSDLGFEVKCFND [F12Q] the figure was 3.97; with TCADRDNLLRRFSDLGFEVKCFND [T9L], 3.12.

Take TCADRDNLYRRFSDLGFEVKCFND [T9Y]: the protein stability index was 2.41. The result for TCADRDNLFRRFSDLGFEVKCFND [T9F] reads 1.94; that for TCADRDNLKRRFSDLGFEVKCFND [T9K], 3.12. With TCADRDNLHRRFSDLGFEVKCFND [T9H] the figure was 3.03; with TCADRDNLCRRFSDLGFEVKCFND [T9C], 2.87; with TCADRDNLRRRFSDLGFEVKCFND [T9R], 3.36. The result for TCADRDNLERRFSDLGFEVKCFND [T9E] reads 3.75; that for TCADRDNLGRRFSDLGFEVKCFND [T9G], 3.47.

TCADRDNLWRRFSDLGFEVKCFND [T9W]: the protein stability index worked out at 2.34. The result for TCADRDNLPRRFSDLGFEVKCFND [T9P] reads 3.62; that for TCADRDNLNRRFSDLGFEVKCFND [T9N], 2.83. The result for TCADRDNLSRRFSDLGFEVKCFND [T9S] reads 3.25. With TCADRDNLQRRFSDLGFEVKCFND [T9Q] the figure was 3.49; with TCADRDNLIRRFSDLGFEVKCFND [T9I], 2.69.

TCADRDNLDRRFSDLGFEVKCFND [T9D]: the protein stability index was determined as 3.51. With TCADRDNLMRRFSDLGFEVKCFND [T9M] the figure was 2.54; with TCADRDNLARRFSDLGFEVKCFND [T9A], 3.3; with TCADRDNLVRRFSDLGFEVKCFND [T9V], 3.58. With TCADRDNLTRRFSDAGFEVKCFND [L15A] the figure was 3.16; with TCADRDNLTRRFSDTGFEVKCFND [L15T], 4.13.

For the variant TCADRDNLTRRFSDSGFEVKCFND [L15S], the protein stability index amounted to 4.02. The result for TCADRDNLTRRFSDFGFEVKCFND [L15F] reads 3.07. The result for TCADRDNLTRRFSDNGFEVKCFND [L15N] reads 3.94. The result for TCADRDNLTRRFSDIGFEVKCFND [L15I] reads 2.91. TCADRDNLTRRFSDKGFEVKCFND [L15K]: the protein stability index is 4.11. With TCADRDNLTRRFSDWGFEVKCFND [L15W] the figure was 2.75; with TCADRDNLTRRFSDHGFEVKCFND [L15H], 3.65.

Regarding TCADRDNLTRRFSDRGFEVKCFND [L15R], the protein stability index came out at 3.27. With TCADRDNLTRRFSDCGFEVKCFND [L15C] the figure was 2.58; with TCADRDNLTRRFSDVGFEVKCFND [L15V], 3.15. Consider TCADRDNLTRRFSDMGFEVKCFND [L15M], for which the protein stability index turned out to be 3.85.

TCADRDNLTRRFSDYGFEVKCFND [L15Y]: the protein stability index amounted to 3.02. Take TCADRDNLTRRFSDGGFEVKCFND [L15G]: the protein stability index amounted to 3.69. Consider TCADRDNLTRRFSDDGFEVKCFND [L15D], for which the protein stability index was determined as 3.92. With TCADRDNLTRRFSDQGFEVKCFND [L15Q] the figure was 3.43; with TCADRDNLTRRFSDEGFEVKCFND [L15E], 4.57; with TCADRDNLTRRFSDPGFEVKCFND [L15P], 4.59. The result for TCADRDYLTRRFSDLGFEVKCFND [N7Y] reads 2.72; that for TCADRDNLTRRFSDLGCEVKCFND [F17C], 3.36. As to TCADRDNLTRRFSDLGEEVKCFND [F17E], the protein stability index was 4.52.

Turning to TCADRDNLTRRFSDLGTEVKCFND [F17T], the protein stability index worked out at 3.75. With TCADRDNLTRRFSDLGREVKCFND [F17R] the figure was 2.95; with TCADRDNLTRRFSDLGAEVKCFND [F17A], 3.7; with TCADRDNLTRRFSDLGLEVKCFND [F17L], 4.16. Take TCADRDNLTRRFSDLGKEVKCFND [F17K]: the protein stability index amounted to 3.37. With TCADRDNLTRRFSDLGQEVKCFND [F17Q] the figure was 4.29. Take TCADRDNLTRRFSDLGIEVKCFND [F17I]: the protein stability index was found to be 3.54. The result for TCADRDNLTRRFSDLGPEVKCFND [F17P] reads 4.04; that for TCADRDNLTRRFSDLGHEVKCFND [F17H], 3.47; that for TCADRDNLTRRFSDLGMEVKCFND [F17M], 3.58.

Turning to TCADRDNLTRRFSDLGSEVKCFND [F17S], the protein stability index was 4.17. The result for TCADRDNLTRRFSDLGNEVKCFND [F17N] reads 4.26; that for TCADRDNLTRRFSDLGGEVKCFND [F17G], 4.34. The result for TCADRDNLTRRFSDLGDEVKCFND [F17D] reads 4.8. The result for TCADRDNLTRRFVDLGFEVKCFND [S13V] reads 2.32; that for TCADRDNLTRRFMDLGFEVKCFND [S13M], 2.71; that for TCADRDNLTRRFKDLGFEVKCFND [S13K], 3.45. For TCADRDNLTRRFEDLGFEVKCFND [S13E], the protein stability index came out at 3.84.

Regarding TCADRDNLTRRFGDLGFEVKCFND [S13G], the protein stability index was 3. The result for TCADRDNLTRRFNDLGFEVKCFND [S13N] reads 3.44; that for TCADRDNLTRRFLDLGFEVKCFND [S13L], 2.71. With TCADRDNLTRRFYDLGFEVKCFND [S13Y] the figure was 2.7; with TCADRDNLTRRFQDLGFEVKCFND [S13Q], 3.65; with TCADRDNLTRRFDDLGFEVKCFND [S13D], 3.83.

Regarding TCADRDNLTRRFIDLGFEVKCFND [S13I], the protein stability index was 2.75. With TCADRDNLTRRFHDLGFEVKCFND [S13H] the figure was 2.88; with TCADRDNLTRRFTDLGFEVKCFND [S13T], 2.58; with TCADRDNLTRRFWDLGFEVKCFND [S13W], 2.36. As to TCADRDNLTRRFFDLGFEVKCFND [S13F], the protein stability index is 2.7. The result for TCADRDNLTRRFADLGFEVKCFND [S13A] reads 3.46; that for TCADRDNLTRRFPDLGFEVKCFND [S13P], 2.86. Turning to TCADRDNLTRRFCDLGFEVKCFND [S13C], the protein stability index amounted to 2.67. On to TCADRDNLTRRFRDLGFEVKCFND [S13R], for which the protein stability index was determined as 2.98.
